# Results from US20240294581.
# Test system: T1, Leupeptin A (N-Acetyl-L-leucyl-L-leucyl-L-argininal)
# T1 sequence: LLR
substance,measurement,value
"Plu4509 (hypothetical protein / candidate protease from P. luminescens TTO1), purified as a His6x-tagged variant","production of metabolites 10 and 11 (in vitro enzyme assay, end point analysis; 1 h, 35 C; LC-MS)",addition of enzyme indeed significantly enhanced production of 10 and 11
same,"production of metabolites 10 and 11 in E. coli expressing plu4509, fed leupeptin A, versus vector control",E. coli control cultures were capable of generating both metabolites 10 and 11 with plu4509 providing an enhancement in production over controls
